# In paper PMC12084297, “Cytoplasmic connexin43-microtubule interactions promote glioblastoma stem-like cell maintenance and tumorigenicity” (Cell Death & Disease, 2025):
# Experiments:
# [1] = biological target: α-tubulin (human (endogenous in VTC-037 GSCs)) (UniProt P68363); experiment: cellular thermal shift assay (CETSA); fresh VTC-037 GSC lysates in non-denaturing buffer treated 1 h with 3-fold dilutions (222.2, 74.0, 24.7, 8.2 and 2.7 nM) of peptide, heat challenge at 57 °C for 20 min, centrifugation, immunoblot of the stable protein normalised to DMSO control; EC50 of target engagement
# Sequence of α-tubulin (human (endogenous in VTC-037 GSCs)) (P68363 whole entry): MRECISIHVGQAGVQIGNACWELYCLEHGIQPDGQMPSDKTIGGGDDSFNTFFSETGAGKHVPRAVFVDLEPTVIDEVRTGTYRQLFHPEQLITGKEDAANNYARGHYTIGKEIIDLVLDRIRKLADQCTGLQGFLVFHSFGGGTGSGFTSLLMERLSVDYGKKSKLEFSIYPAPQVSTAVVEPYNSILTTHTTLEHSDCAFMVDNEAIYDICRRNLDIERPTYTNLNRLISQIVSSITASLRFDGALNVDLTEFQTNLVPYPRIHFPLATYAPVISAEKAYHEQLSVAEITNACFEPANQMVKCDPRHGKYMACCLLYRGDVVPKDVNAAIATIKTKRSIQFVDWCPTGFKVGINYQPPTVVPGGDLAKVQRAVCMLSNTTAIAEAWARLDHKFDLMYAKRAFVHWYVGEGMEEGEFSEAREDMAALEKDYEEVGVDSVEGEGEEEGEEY
# [2] = biological target: β-tubulin (human (endogenous in VTC-001 and VTC-037 GSCs)) (UniProt P07437); experiment: as above
# Sequence of β-tubulin (human (endogenous in VTC-001 and VTC-037 GSCs)) (P07437 whole entry): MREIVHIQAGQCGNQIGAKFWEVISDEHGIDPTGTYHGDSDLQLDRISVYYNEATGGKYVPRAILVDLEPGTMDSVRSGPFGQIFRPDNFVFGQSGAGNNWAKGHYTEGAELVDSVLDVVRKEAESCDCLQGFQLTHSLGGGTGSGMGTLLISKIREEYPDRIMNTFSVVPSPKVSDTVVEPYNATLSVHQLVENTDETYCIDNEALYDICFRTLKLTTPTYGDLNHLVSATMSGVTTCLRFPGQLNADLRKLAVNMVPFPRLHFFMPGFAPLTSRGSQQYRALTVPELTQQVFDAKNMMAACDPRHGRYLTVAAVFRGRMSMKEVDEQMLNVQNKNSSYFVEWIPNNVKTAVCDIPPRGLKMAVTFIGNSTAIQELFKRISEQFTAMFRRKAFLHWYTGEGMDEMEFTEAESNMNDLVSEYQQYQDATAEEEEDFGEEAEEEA
substance,measurement,setting,value
JM2 (juxtamembrane 2) peptide,EC50,[1],8.4 nM
same,EC50,[2],7.9 nM
